Experimental data from patent US20210363262A1 (AIMED BIO, published 2021).

B1: 1F12 (parent antibody), full-length human IgG1 (antibody, V domains shown)
VH: EVQLLESGGGLVQPGGSLRLSCAASGFTFSNYAMSWVRQAPGKGLEWVSGISYSGGSTYYADSVKGRFTISRDNSKNTLYLQMNSLRAEDTAVYYCAKASRSCQRPACSYANGMDVWGQGTLVTVSS
VL: QSVLTQPPSASGTPGQRVTISCTGSSSNIGNNYVTWYQQLPGTAPKLLIYYNNHRPSGVPDRFSGSKSGTSASLAISGLQSEDEADYYCGSWDYSLSAYVFGGGTKLTVL
B2: 1F12_L96D, full-length human IgG1 (antibody, V domains shown)
VH: EVQLLESGGGLVQPGGSLRLSCAASGFTFSNYAMSWVRQAPGKGLEWVSGISYSGGSTYYADSVKGRFTISRDNSKNTLYLQMNSLRAEDTAVYYCAKASRSCQRPACSYANGMDVWGQGTLVTVSS
VL: QSVLTQPPSASGTPGQRVTISCTGSSSNIGNNYVTWYQQLPGTAPKLLIYYNNHRPSGVPDRFSGSKSGTSASLAISGLQSEDEADYYCGSWDYSLSADVFGGGTKLTVL
B3: 1F12_H58D, full-length human IgG1 (antibody, V domains shown)
VH: EVQLLESGGGLVQPGGSLRLSCAASGFTFSNYAMSWVRQAPGKGLEWVSGISYSGGSTDYADSVKGRFTISRDNSKNTLYLQMNSLRAEDTAVYYCAKASRSCQRPACSYANGMDVWGQGTLVTVSS
VL: QSVLTQPPSASGTPGQRVTISCTGSSSNIGNNYVTWYQQLPGTAPKLLIYYNNHRPSGVPDRFSGSKSGTSASLAISGLQSEDEADYYCGSWDYSLSAYVFGGGTKLTVL
B4: 1F12_H57K, full-length human IgG1 (antibody, V domains shown)
VH: EVQLLESGGGLVQPGGSLRLSCAASGFTFSNYAMSWVRQAPGKGLEWVSGISYSGGSKYYADSVKGRFTISRDNSKNTLYLQMNSLRAEDTAVYYCAKASRSCQRPACSYANGMDVWGQGTLVTVSS
VL: QSVLTQPPSASGTPGQRVTISCTGSSSNIGNNYVTWYQQLPGTAPKLLIYYNNHRPSGVPDRFSGSKSGTSASLAISGLQSEDEADYYCGSWDYSLSAYVFGGGTKLTVL
B5: 1F12_H100eH, full-length human IgG1 (antibody, V domains shown)
VH: EVQLLESGGGLVQPGGSLRLSCAASGFTFSNYAMSWVRQAPGKGLEWVSGISYSGGSTYYADSVKGRFTISRDNSKNTLYLQMNSLRAEDTAVYYCAKASRSCQRPACHYANGMDVWGQGTLVTVSS
VL: QSVLTQPPSASGTPGQRVTISCTGSSSNIGNNYVTWYQQLPGTAPKLLIYYNNHRPSGVPDRFSGSKSGTSASLAISGLQSEDEADYYCGSWDYSLSAYVFGGGTKLTVL
B6: 1F12_L26D, full-length human IgG1 (antibody, V domains shown)
VH: EVQLLESGGGLVQPGGSLRLSCAASGFTFSNYAMSWVRQAPGKGLEWVSGISYSGGSTYYADSVKGRFTISRDNSKNTLYLQMNSLRAEDTAVYYCAKASRSCQRPACSYANGMDVWGQGTLVTVSS
VL: QSVLTQPPSASGTPGQRVTISCTGDSSNIGNNYVTWYQQLPGTAPKLLIYYNNHRPSGVPDRFSGSKSGTSASLAISGLQSEDEADYYCGSWDYSLSAYVFGGGTKLTVL
B7: 1F12_H60N, full-length human IgG1 (antibody, V domains shown)
VH: EVQLLESGGGLVQPGGSLRLSCAASGFTFSNYAMSWVRQAPGKGLEWVSGISYSGGSTYYNDSVKGRFTISRDNSKNTLYLQMNSLRAEDTAVYYCAKASRSCQRPACSYANGMDVWGQGTLVTVSS
VL: QSVLTQPPSASGTPGQRVTISCTGSSSNIGNNYVTWYQQLPGTAPKLLIYYNNHRPSGVPDRFSGSKSGTSASLAISGLQSEDEADYYCGSWDYSLSAYVFGGGTKLTVL
B8: 1F12_L51D, full-length human IgG1 (antibody, V domains shown)
VH: EVQLLESGGGLVQPGGSLRLSCAASGFTFSNYAMSWVRQAPGKGLEWVSGISYSGGSTYYADSVKGRFTISRDNSKNTLYLQMNSLRAEDTAVYYCAKASRSCQRPACSYANGMDVWGQGTLVTVSS
VL: QSVLTQPPSASGTPGQRVTISCTGSSSNIGNNYVTWYQQLPGTAPKLLIYYDNHRPSGVPDRFSGSKSGTSASLAISGLQSEDEADYYCGSWDYSLSAYVFGGGTKLTVL
B9: 1F12_L27bD, full-length human IgG1 (antibody, V domains shown)
VH: EVQLLESGGGLVQPGGSLRLSCAASGFTFSNYAMSWVRQAPGKGLEWVSGISYSGGSTYYADSVKGRFTISRDNSKNTLYLQMNSLRAEDTAVYYCAKASRSCQRPACSYANGMDVWGQGTLVTVSS
VL: QSVLTQPPSASGTPGQRVTISCTGSSSDIGNNYVTWYQQLPGTAPKLLIYYNNHRPSGVPDRFSGSKSGTSASLAISGLQSEDEADYYCGSWDYSLSAYVFGGGTKLTVL
B10: 1F12_H53D, full-length human IgG1 (antibody, V domains shown)
VH: EVQLLESGGGLVQPGGSLRLSCAASGFTFSNYAMSWVRQAPGKGLEWVSGISYDGGSTYYADSVKGRFTISRDNSKNTLYLQMNSLRAEDTAVYYCAKASRSCQRPACSYANGMDVWGQGTLVTVSS
VL: QSVLTQPPSASGTPGQRVTISCTGSSSNIGNNYVTWYQQLPGTAPKLLIYYNNHRPSGVPDRFSGSKSGTSASLAISGLQSEDEADYYCGSWDYSLSAYVFGGGTKLTVL
B11: 1F12_L50E, full-length human IgG1 (antibody, V domains shown)
VH: EVQLLESGGGLVQPGGSLRLSCAASGFTFSNYAMSWVRQAPGKGLEWVSGISYSGGSTYYADSVKGRFTISRDNSKNTLYLQMNSLRAEDTAVYYCAKASRSCQRPACSYANGMDVWGQGTLVTVSS
VL: QSVLTQPPSASGTPGQRVTISCTGSSSNIGNNYVTWYQQLPGTAPKLLIYENNHRPSGVPDRFSGSKSGTSASLAISGLQSEDEADYYCGSWDYSLSAYVFGGGTKLTVL
B12: 1F12_H35H, full-length human IgG1 (antibody, V domains shown)
VH: EVQLLESGGGLVQPGGSLRLSCAASGFTFSNYAMHWVRQAPGKGLEWVSGISYSGGSTYYADSVKGRFTISRDNSKNTLYLQMNSLRAEDTAVYYCAKASRSCQRPACSYANGMDVWGQGTLVTVSS
VL: QSVLTQPPSASGTPGQRVTISCTGSSSNIGNNYVTWYQQLPGTAPKLLIYYNNHRPSGVPDRFSGSKSGTSASLAISGLQSEDEADYYCGSWDYSLSAYVFGGGTKLTVL
B13: 1F12_L95aR, full-length human IgG1 (antibody, V domains shown)
VH: EVQLLESGGGLVQPGGSLRLSCAASGFTFSNYAMSWVRQAPGKGLEWVSGISYSGGSTYYADSVKGRFTISRDNSKNTLYLQMNSLRAEDTAVYYCAKASRSCQRPACSYANGMDVWGQGTLVTVSS
VL: QSVLTQPPSASGTPGQRVTISCTGSSSNIGNNYVTWYQQLPGTAPKLLIYYNNHRPSGVPDRFSGSKSGTSASLAISGLQSEDEADYYCGSWDYSLRAYVFGGGTKLTVL
B14: 1F12_H6L5, full-length human IgG1 (antibody, V domains shown)
VH: EVQLLESGGGLVQPGGSLRLSCAASGFTFSNYAMSWVRQAPGKGLEWVSGISYSGGSTYYADSVKGRFTISRDNSKNTLYLQMNSLRAEDTAVYYCAKASRSCQRPACHYANGMDVWGQGTLVTVSS
VL: QSVLTQPPSASGTPGQRVTISCTGSSSNIGNNYVTWYQQLPGTAPKLLIYYNNHRPSGVPDRFSGSKSGTSASLAISGLQSEDEADYYCGSWDYSLRAYVFGGGTKLTVL
B15: 1F12_H3L5, full-length human IgG1 (antibody, V domains shown)
VH: EVQLLESGGGLVQPGGSLRLSCAASGFTFSNYAMSWVRQAPGKGLEWVSGISYSGGSKYYADSVKGRFTISRDNSKNTLYLQMNSLRAEDTAVYYCAKASRSCQRPACSYANGMDVWGQGTLVTVSS
VL: QSVLTQPPSASGTPGQRVTISCTGSSSNIGNNYVTWYQQLPGTAPKLLIYYNNHRPSGVPDRFSGSKSGTSASLAISGLQSEDEADYYCGSWDYSLRAYVFGGGTKLTVL
B16: 1F12_H2L3, full-length human IgG1 (antibody, V domains shown)
VH: EVQLLESGGGLVQPGGSLRLSCAASGFTFSNYAMSWVRQAPGKGLEWVSGISYDGGSTYYADSVKGRFTISRDNSKNTLYLQMNSLRAEDTAVYYCAKASRSCQRPACSYANGMDVWGQGTLVTVSS
VL: QSVLTQPPSASGTPGQRVTISCTGSSSNIGNNYVTWYQQLPGTAPKLLIYENNHRPSGVPDRFSGSKSGTSASLAISGLQSEDEADYYCGSWDYSLSAYVFGGGTKLTVL
B17: 1F12_H2L6, full-length human IgG1 (antibody, V domains shown)
VH: EVQLLESGGGLVQPGGSLRLSCAASGFTFSNYAMSWVRQAPGKGLEWVSGISYDGGSTYYADSVKGRFTISRDNSKNTLYLQMNSLRAEDTAVYYCAKASRSCQRPACSYANGMDVWGQGTLVTVSS
VL: QSVLTQPPSASGTPGQRVTISCTGSSSNIGNNYVTWYQQLPGTAPKLLIYYNNHRPSGVPDRFSGSKSGTSASLAISGLQSEDEADYYCGSWDYSLSADVFGGGTKLTVL

Each molecule was assayed against c-Met on cancer cell lines (Caki-1 renal cell carcinoma; MKN45 c-Met-amplified gastric cancer) (UniProt P08581) (assay: cell-based or functional assay).
Chain of c-Met on cancer cell lines (Caki-1 renal cell carcinoma; MKN45 c-Met-amplified gastric cancer) (UniProt P08581) (P08581 25-1390): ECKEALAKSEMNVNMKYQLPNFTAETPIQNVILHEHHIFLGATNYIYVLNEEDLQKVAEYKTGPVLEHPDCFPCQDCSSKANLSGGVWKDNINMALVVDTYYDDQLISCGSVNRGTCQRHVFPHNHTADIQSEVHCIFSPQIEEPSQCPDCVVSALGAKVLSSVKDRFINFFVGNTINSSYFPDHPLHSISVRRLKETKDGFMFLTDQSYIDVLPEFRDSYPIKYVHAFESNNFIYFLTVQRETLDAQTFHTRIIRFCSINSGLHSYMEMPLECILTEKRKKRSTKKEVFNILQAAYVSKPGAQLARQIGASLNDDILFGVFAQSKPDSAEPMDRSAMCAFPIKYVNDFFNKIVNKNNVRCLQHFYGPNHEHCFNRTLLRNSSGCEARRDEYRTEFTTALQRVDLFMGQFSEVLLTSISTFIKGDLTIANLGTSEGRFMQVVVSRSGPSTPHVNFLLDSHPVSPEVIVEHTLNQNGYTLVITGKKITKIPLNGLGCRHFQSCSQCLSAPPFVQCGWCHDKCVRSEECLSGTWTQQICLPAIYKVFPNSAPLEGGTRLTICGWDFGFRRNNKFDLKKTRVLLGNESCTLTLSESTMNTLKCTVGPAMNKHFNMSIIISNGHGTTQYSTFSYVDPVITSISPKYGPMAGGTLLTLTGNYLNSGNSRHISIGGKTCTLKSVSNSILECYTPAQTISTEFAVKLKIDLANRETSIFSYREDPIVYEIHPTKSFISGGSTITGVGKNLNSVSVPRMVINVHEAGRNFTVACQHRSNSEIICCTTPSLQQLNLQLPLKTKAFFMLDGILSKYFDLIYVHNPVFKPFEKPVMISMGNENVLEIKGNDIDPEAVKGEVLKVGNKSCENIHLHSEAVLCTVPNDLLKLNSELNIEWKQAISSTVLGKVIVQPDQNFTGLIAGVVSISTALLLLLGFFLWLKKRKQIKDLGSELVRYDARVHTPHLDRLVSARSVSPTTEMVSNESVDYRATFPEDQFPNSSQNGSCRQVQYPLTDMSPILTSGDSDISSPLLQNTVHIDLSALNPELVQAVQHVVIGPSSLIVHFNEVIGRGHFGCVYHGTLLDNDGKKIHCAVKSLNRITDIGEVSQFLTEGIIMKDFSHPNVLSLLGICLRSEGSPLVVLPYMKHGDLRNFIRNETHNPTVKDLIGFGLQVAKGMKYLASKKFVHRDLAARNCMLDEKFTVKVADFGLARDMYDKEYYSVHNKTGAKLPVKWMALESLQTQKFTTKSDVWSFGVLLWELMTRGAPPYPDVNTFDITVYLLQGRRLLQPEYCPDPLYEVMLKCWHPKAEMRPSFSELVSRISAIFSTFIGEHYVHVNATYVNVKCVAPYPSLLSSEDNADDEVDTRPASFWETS

Compared with 5D5, c-Met agonist antibody, “Onartuzumab (OA-5D5; monovalent c-Met antibody, Genentech)” is lower in agonist activity: Akt phosphorylation in Caki-1 cells, Mean (%) (PBS = 0%, HGF/SF = 100%): 86% for the first, 30.5% for the second.

With “c-Met ligand HGF/SF (R&D systems) (from UniProt P14210 32-728)” the agonist activity: Akt phosphorylation in Caki-1 cells, Mean (%) (PBS = 0%, HGF/SF = 100%) was 100%.

Each molecule was assayed against c-Met on cancer cell lines (Caki-1 renal cell carcinoma; MKN45 c-Met-amplified gastric cancer) (UniProt P08581 25-1390) (assay: cell-based or functional assay).
Chain of c-Met on cancer cell lines (Caki-1 renal cell carcinoma; MKN45 c-Met-amplified gastric cancer) (UniProt P08581 25-1390) (P08581 25-1390): as above

Compared with B1, B2 is higher in “agonist activity: Akt phosphorylation in Caki-1 cells, Mean (%) (PBS = 0%, HGF/SF = 100%)” value (shortened to “agonist activity … (PBS = 0%, HGF/SF = 100%)”): 18.2% for the first, 21.2% for the second.

First: B3
Second: B4
The “agonist activity … (PBS = 0%, HGF/SF = 100%)” value of the first is lower: 21.5% for the first, 26.8% for the second.

Compared with B5, B6 is higher in “agonist activity … (PBS = 0%, HGF/SF = 100%)” value: 27.5% for the first, 38.1% for the second.

Compared with B7, B8 is higher in “agonist activity … (PBS = 0%, HGF/SF = 100%)” value: 27.7% for the first, 42.5% for the second.

First: B9
Second: B10
The “agonist activity … (PBS = 0%, HGF/SF = 100%)” value of the first is higher: 30.3% for the first, 24.5% for the second.

Compared with B11, B12 is lower in “agonist activity … (PBS = 0%, HGF/SF = 100%)” value: 37.2% for the first, 17.3% for the second.

Going from B13 to B14, the “agonist activity … (PBS = 0%, HGF/SF = 100%)” value falls from 29.5% to 18.2%.

First: B15
Second: B16
The “agonist activity … (PBS = 0%, HGF/SF = 100%)” value of the first is lower: 18.9% for the first, 24.5% for the second.

B17 was tested, and the “agonist activity … (PBS = 0%, HGF/SF = 100%)” value was 26%.
